Experiments:
Assay in all cases: cell-based or functional assay
hCav1.2 (human) = hCav1.2 (human) (UniProt Q13936)
hKCNQ1/minK (human) = hKCNQ1/minK (human) (UniProt P51787)
hKV11.1/hERG (human) = hKV11.1/hERG (human) (UniProt Q12809)
hNav1.5 (human) = hNav1.5 (human) (UniProt Q14524)
Chain of hNav1.5 (human) (Q14524 whole entry): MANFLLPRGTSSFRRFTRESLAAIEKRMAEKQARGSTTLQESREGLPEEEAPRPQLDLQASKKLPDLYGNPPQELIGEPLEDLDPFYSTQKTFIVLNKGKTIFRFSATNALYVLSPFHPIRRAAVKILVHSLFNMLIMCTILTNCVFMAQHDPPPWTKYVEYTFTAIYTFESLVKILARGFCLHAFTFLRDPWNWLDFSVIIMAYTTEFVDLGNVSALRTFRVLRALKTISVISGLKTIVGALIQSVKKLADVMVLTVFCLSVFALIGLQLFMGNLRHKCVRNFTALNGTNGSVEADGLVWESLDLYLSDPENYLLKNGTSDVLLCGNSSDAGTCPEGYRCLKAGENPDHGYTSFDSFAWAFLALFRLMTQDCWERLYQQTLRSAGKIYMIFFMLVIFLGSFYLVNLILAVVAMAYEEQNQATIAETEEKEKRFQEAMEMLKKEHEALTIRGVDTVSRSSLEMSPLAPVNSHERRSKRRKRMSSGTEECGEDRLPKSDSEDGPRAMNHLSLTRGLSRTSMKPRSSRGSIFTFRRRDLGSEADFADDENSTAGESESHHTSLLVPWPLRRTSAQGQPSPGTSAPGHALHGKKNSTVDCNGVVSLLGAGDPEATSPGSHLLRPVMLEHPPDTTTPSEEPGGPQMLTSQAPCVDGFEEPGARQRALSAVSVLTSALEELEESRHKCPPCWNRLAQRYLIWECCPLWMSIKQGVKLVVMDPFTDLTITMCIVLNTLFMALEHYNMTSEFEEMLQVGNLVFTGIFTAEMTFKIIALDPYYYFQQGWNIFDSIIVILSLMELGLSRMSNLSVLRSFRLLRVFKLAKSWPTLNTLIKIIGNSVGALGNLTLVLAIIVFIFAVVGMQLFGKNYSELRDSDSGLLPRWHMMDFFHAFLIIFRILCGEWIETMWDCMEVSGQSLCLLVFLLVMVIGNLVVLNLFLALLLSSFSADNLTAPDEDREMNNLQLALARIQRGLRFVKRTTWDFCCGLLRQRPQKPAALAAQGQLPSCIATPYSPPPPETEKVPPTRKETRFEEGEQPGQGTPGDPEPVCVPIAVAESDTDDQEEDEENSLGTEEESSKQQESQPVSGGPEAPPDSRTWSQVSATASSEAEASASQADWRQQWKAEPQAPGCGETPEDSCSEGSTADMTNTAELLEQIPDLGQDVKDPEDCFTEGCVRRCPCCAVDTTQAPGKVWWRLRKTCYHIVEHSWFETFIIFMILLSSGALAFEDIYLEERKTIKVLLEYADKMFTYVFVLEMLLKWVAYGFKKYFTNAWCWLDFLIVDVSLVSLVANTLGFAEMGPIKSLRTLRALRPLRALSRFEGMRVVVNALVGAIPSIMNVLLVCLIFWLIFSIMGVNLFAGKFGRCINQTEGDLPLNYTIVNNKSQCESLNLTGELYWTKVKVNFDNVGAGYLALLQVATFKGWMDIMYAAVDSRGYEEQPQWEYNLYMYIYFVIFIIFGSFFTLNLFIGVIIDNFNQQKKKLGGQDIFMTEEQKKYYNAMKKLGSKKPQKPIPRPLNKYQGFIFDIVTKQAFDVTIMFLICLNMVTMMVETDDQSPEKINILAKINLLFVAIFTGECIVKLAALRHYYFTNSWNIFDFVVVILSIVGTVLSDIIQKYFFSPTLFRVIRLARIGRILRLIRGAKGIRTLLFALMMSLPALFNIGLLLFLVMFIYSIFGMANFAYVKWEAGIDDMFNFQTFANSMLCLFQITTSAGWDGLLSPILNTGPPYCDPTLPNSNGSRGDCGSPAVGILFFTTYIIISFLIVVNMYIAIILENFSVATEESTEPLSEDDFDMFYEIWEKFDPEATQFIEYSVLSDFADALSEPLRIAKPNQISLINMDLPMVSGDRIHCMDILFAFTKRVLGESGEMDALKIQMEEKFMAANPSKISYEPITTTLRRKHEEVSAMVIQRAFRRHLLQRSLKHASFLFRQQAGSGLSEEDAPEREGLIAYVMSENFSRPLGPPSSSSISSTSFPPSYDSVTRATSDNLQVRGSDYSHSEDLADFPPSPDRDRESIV

Chain of hKV11.1/hERG (human) (Q12809 whole entry): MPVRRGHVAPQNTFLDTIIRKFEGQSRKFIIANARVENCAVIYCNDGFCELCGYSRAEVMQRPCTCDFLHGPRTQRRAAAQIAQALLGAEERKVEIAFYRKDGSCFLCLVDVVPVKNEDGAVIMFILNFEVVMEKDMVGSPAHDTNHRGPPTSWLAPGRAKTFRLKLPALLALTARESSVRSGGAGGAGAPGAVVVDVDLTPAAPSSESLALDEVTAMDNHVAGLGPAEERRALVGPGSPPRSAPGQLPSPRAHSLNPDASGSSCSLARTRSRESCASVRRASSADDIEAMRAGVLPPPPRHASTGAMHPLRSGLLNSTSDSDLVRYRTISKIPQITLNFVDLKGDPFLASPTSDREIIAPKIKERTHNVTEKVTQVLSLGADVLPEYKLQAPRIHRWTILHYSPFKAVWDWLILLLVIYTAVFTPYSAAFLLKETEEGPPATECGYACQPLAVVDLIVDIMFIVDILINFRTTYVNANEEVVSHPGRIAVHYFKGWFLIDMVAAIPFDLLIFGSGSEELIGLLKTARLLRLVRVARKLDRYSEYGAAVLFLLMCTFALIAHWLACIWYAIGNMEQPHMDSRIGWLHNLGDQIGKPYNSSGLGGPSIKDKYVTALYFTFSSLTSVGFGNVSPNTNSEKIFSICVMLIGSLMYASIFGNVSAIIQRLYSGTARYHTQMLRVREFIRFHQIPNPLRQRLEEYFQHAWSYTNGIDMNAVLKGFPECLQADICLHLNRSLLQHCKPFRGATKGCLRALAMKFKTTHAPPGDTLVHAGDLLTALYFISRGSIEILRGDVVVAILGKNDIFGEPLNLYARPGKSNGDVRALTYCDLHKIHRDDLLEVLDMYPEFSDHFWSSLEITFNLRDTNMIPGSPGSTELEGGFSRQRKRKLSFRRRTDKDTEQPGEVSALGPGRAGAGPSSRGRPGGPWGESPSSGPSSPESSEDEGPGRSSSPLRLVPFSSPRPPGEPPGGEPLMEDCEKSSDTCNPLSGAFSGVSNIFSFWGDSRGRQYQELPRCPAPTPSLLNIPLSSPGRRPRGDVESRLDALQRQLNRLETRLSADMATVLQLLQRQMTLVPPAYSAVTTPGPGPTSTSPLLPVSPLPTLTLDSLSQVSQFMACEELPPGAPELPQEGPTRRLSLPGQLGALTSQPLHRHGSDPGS

Hi1a (recombinant, with non-native N-terminal serine) (peptide)
% inhibition of hCav1.2 current, mean, 1 µM Hi1a (hCav1.2 (human)): 8.98% | % inhibition of hCav1.2 current, n1, 1 µM Hi1a (hCav1.2 (human)): 2.79% | % inhibition of hCav1.2 current, n2, 1 µM Hi1a (hCav1.2 (human)): 13.2% | % inhibition of hCav1.2 current, n3, 1 µM Hi1a (hCav1.2 (human)): 10.9% | % inhibition of hKCNQ1/mink current, mean, 1 µM Hi1a (hKCNQ1/minK (human)): 0.17% | % inhibition of hKCNQ1/mink current, n1, 1 µM Hi1a (hKCNQ1/minK (human)): 1.87% | % inhibition of hKCNQ1/mink current, n2, 1 µM Hi1a (hKCNQ1/minK (human)): -0.67% | % inhibition of hKCNQ1/mink current, n3, 1 µM Hi1a (hKCNQ1/minK (human)): -0.68% | % inhibition of hERG current, mean, 1 µM Hi1a (hKV11.1/hERG (human)): -6.2% | % inhibition of hERG current, n1, 1 µM Hi1a (hKV11.1/hERG (human)): -7.5% | % inhibition of hERG current, n2, 1 µM Hi1a (hKV11.1/hERG (human)): 1.58% | % inhibition of hERG current, n3, 1 µM Hi1a (hKV11.1/hERG (human)): -12.7% | % inhibition of hNav1.5 current, mean, 1 µM Hi1a (hNav1.5 (human)): 8.46% | % inhibition of hNav1.5 current, n1, 1 µM Hi1a (hNav1.5 (human)): 7.31% | % inhibition of hNav1.5 current, n2, 1 µM Hi1a (hNav1.5 (human)): 11% | % inhibition of hNav1.5 current, n3, 1 µM Hi1a (hNav1.5 (human)): 7.1% | % inhibition, hNav1.5 Late current antagonist assay, mean, 1 µM Hi1a (hNav1.5 (human)): -12.4% | % inhibition, hNav1.5 Late current antagonist assay, n1, 1 µM Hi1a (hNav1.5 (human)): -9.74% | % inhibition, hNav1.5 Late current antagonist assay, n2, 1 µM Hi1a (hNav1.5 (human)): -13.9% | % inhibition, hNav1.5 Late current antagonist assay, n3, 1 µM Hi1a (hNav1.5 (human)): -13.4%

Reference: US20220177846A1
